Results published in patent US20050101769A1 (VLAAMS INTERUNIVERSITAIR INSTITUUT VOOR BIOTECHNOLOGIE VZW, published 2005).

B1: 4F2, TTRAP deletion mutant, amino acids 54 to 362 (other)
chain: MERALNSYFEPPVEESALERRPETISEPKTYVDLTNEETTDSTTSKISPSEDTQQENGSMFSLITWNIDGLDLNNLSERARGVCSYLALYSPDVIFLQEVIPPYYSYLKKRSSNYEIITGHEEGYFTAIMLKKSRVKLKSQEIIPFPSTKMMRNLLCVHVNVSGNELCLMTSHLESTRGHAAERMNQLKMVLKKMQEAPESATVIFAGDTNLRDREVTRCGGLPNNIVDVWEFLGKPKHCQYTWDTQMNSNLGITAACKLRFDRIFFRAAAEEGHIIPRSLDLLGLEKLDCGRFPSDHWGLLCNLDIIL
notes: also called longest TTRAP fragment (aa 54-362); TTRAP/4F2
B2: FADD (other, UniProt Q13158 1-208, looked up)
chain: MDPFLVLLHSVSSSLSSSELTELKFLCLGRVGKRKLERVQSGLDLFSMLLEQNDLEPGHTELLRELLASLRRHDLLRRVDDFEAGAAAGAAPGEEDLCAAFNVICDNVGKDWRRLARQLKVSDTKIDSIEDRYPRNLTERVRESLRIWKNTEKENATVAHLVGALRSCQMNLVADLVQEVQQARDLQNRSGAMSPMSWNSDASTSEAS
B3: 4F2d1, TTRAP deletion mutant, amino acids 54 to 140 (other)
chain: MERALNSYFEPPVEESALERRPETISEPKTYVDLTNEETTDSTTSKISPSEDTQQENGSMFSLITWNIDGLDLNNLSERARGVCSYL
notes: Yeast two-hybrid fusion
B4: 4F2d3, TTRAP deletion mutant, amino acids 54 to 273 (other)
chain: MERALNSYFEPPVEESALERRPETISEPKTYVDLTNEETTDSTTSKISPSEDTQQENGSMFSLITWNIDGLDLNNLSERARGVCSYLALYSPDVIFLQEVIPPYYSYLKKRSSNYEIITGHEEGYFTAIMLKKSRVKLKSQEIIPFPSTKMMRNLLCVHVNVSGNELCLMTSHLESTRGHAAERMNQLKMVLKKMQEAPESATVIFAGDTNLRDREVTRC
notes: Yeast two-hybrid fusion
B5: LMP-1 (other)
chain: YYHGQRHSDEHHHDDSLPHPQQATDDSGHESDSNSNEGRHHLLVSGAGDGPPLCSQNLGAPGGGPDNGPQDPDNTDDNGPQDPDNTDDNGPHDPLPQDPDNTDDNGPQDPDNTDDNGPHDPLPHSPSDSAGNDGGPPQLTEEVENKGGDQGPPLMTDGGGGHSHDSGHGGGDPHLPTLLLGSSGSGGDDDDPHGPVQLSYYD
B6: TTRAP (TRAF and TNF receptor associated protein), full-length human (other)
chain: MELGSCLEGGREAAEEEGEPEVKKRRLLCVEFASVASCDAAVAQCFLAENDWEMERALNSYFEPPVEESALERRPETISEPKTYVDLTNEETTDSTTSKISPSEDTQQENGSMFSLITWNIDGLDLNNLSERARGVCSYLALYSPDVIFLQEVIPPYYSYLKKRSSNYEIITGHEEGYFTAIMLKKSRVKLKSQEIIPFPSTKMMRNLLCVHVNVSGNELCLMTSHLESTRGHAAERMNQLKMVLKKMQEAPESATVIFAGDTNLRDREVTRCGGLPNNIVDVWEFLGKPKHCQYTWDTQMNSNLGITAACKLRFDRIFFRAAAEEGHIIPRSLDLLGLEKLDCGRFPSDHWGLLCNLDIIL
notes: Protein of 362 amino acids; In the yeast two-hybrid assays it is a fusion expressed from the prey plasmid (pJG45); also called CD40 receptor associated protein
B7: 4F2d2, TTRAP deletion mutant, amino acids 54 to 236 (other)
chain: MERALNSYFEPPVEESALERRPETISEPKTYVDLTNEETTDSTTSKISPSEDTQQENGSMFSLITWNIDGLDLNNLSERARGVCSYLALYSPDVIFLQEVIPPYYSYLKKRSSNYEIITGHEEGYFTAIMLKKSRVKLKSQEIIPFPSTKMMRNLLCVHVNVSGNELCLMTSHLESTRGHAAE
notes: Yeast two-hybrid fusion
B8: cytoplasmic region of CD30 (receptor, UniProt P28908 407-595, looked up)
chain: CHRRACRKRIRQKLHLCYPVQTSQPKLELVDSRPRRSSTQLRSGASVTEPVAEERGLMSQPLMETCHSVGAAYLESLPLQDASPAGGPSSPRDLPEPRVSTEHTNNKIEKIYIMKADTVIVGTVKAELPEGRGLAGPAEPELEEELEADHTPHYPEQETEPPLGSCSDVMLSVEEEGKEDPLPTAASGK
notes: domain: cytoplasmic region
B9: cytoplasmic region of TNF-RII (receptor, UniProt P20333 288-461, looked up)
chain: KKKPLCLQREAKVPHLPADKARGTQGPEQQHLLITAPSSSSSSLESSASALDRRAPTRNQPQAPGVEASGAGEARASTGSSDSSPGGHGTQVNVTCIVNVCSSSDHSSQCSSQASSTMGDTDSSPSESPKDEQVPFSKEECAFRSQLETPETLLGSTEEKPLPLGVPDAGMKPS
notes: domain: cytoplasmic region

Key:
[1] = molecular target: B6; assay: yeast two-hybrid, colour formation on X-gal (column = prey, row = bait)
Protocol: (§1) The potential binding of TTRAP to other proteins was assessed using a yeast two-hybrid assay. The experimental outline is similar to the one described for the two-hybrid screening. However, here the plasmids for bait, prey and lacZ reporter were transformed simultaneously into the EGY48 yeast strain. Positive interaction was determined either by the growth phenotype (growth on medium lacking leucine in the presence of galactose, and not in the presence of glucose) or by the blue/white staining on X-gal containing plates (blue colonies only on galactose containing plates, not on glucose containing plates). cDNA's for TRAF2 and for the cytoplasmic regions of CD30, CD40 and TNF-RII were generated by PCR using the pfu polymerase (Promega). PCR fragments encoding RIP, TRADD and FADD were cloned in pCDNA3 (Invitrogen, Carlsbad, Calif.). cDNA of TRAF3 was obtained from the laboratory of Dixit, Dept Pathol., Univ. Michigan Med. School, MI, USA. The color formation was evaluated as strong and fast (++), strong but slow (+), weak and slow (±), none (−) or not determined (nd).

[2] = molecular target: the molecule itself; assay: as above
Protocol: as §1

[3] = molecular target: B6; assay: yeast two-hybrid, colour formation on X-gal; '-' = none
Protocol: as §1

[4] = molecular target: B9; assay: as above
Protocol: as §1

[5] = molecular target: B1; assay: as above
Protocol: as §1

[6] = molecular target: the molecule itself; assay: yeast two-hybrid (in Table I: TTRAP prey with 4F2 bait)
[7] = molecular target: B1; assay: yeast two-hybrid, colour formation on X-gal (column = prey, row = bait)
Protocol: as §1

[8] = molecular target: B4; assay: yeast two-hybrid, colour formation on X-gal; '-' = none
Protocol: as §1

[9] = molecular target: B7; assay: as above
Protocol: as §1

B1
binding result [1]: binds
binding result [2]: binds

B2
binding result [3]: no binding

B3
binding result [4]: no binding
binding result [5]: no binding

B4
binding result [5]: no binding

B5
binding result [3]: no binding
binding result [5]: no binding

B6
binding result [6]: binds

B7
binding result [5]: no binding

B8
binding result [1]: binds
binding result [7]: binds

B9
binding result [8]: no binding
binding result [9]: no binding
binding result [1]: binds
binding result [7]: binds
